Measurements as given in patent US20260184814A1, “BROADLY NE[…] INFLUENZA NEURAMINIDASE” (priority 2022, published 2026).
Residue numbers refer to the chain shown, from its start.

B1: FNI9-v4.1 (antibody, V domains shown)
VH: QVHLVQSGAEVKEPGSSVTVSCKASGGSFSNQAISWVRQAPGQGLEWMGGIFPISGTPTSAQRFQGRVTFTADESTTTVYMDLSSLRSDDTAVYYCARAGSDYFNRDLGWENYYFASWGQGTLVTVSS
VL: EIVMTQSPATLSLSSGERATLSCRASRSVSSNLAWYQQKPGQAPRLLIYDASTRATGFSARFAGSGSGTEFTLTISSLQSEDSAIYYCQQYNNWPPWTFGQGTKVEIK
B2: FNI9-v9.1 (antibody, V domains shown)
VH: B1 VH with S30N, P58A, F70I
VL: B1 VL
B3: Fab FNI9-v4.1 (Fab, V domains shown)
VH: B1 VH
VL: B1 VL
B4: Fab FNI9-v8.1 (Fab, V domains shown)
VH: B1 VH with S28T, S30N
VL: B1 VL
B5: FNI9-v8.1 (antibody, V domains shown)
VH: B1 VH with S28T, S30N
VL: B1 VL

What was measured:
[1] = biological target: N2 A/Tanzania/205/2010 (82-469) S245N S247T (Influenza A virus); experiment: SPR (Biacore), NA on anti-Avi chip, 1:1 model; NA code NA-19 (+glyc245)
[2] = biological target: N2 A/South_Australia/34/2019 (82-469) N245S (Influenza A virus); experiment: SPR (Biacore), NA on anti-Avi chip, 1:1 model; NA code NA-24 (-glyc245)
[3] = biological target: N2 A/Tanzania/205/2010 (82-469) S245N S247T (Influenza A virus); experiment: SPR; NA-19; design: unit not given beside the values
[4] = biological target: N2 A/South_Australia/34/2019 (82-469) N245S (Influenza A virus); experiment: SPR; NA-24; design: unit not given beside the values
[5] = biological target: N2 A/Hong_Kong/2671/2019 (82-469) N245S (Influenza A virus); experiment: SPR; NA-25; design: unit not given beside the values
[6] = biological target: N2 A/Tanzania/205/2010 (82-469) S245N S247T (Influenza A virus); experiment: SPR, 1:1 binding; NA-19 "+glyc245"
[7] = biological target: N2 A/South_Australia/34/2019 (82-469) N245S (Influenza A virus); experiment: SPR, 1:1 binding; NA-24 "-glyc245"
[8] = biological target: N2 A/Hong_Kong/2671/2019 (82-469) N245S (Influenza A virus); experiment: SPR, 1:1 binding; NA-25 "-glyc245"

Row | Binder | fold-change in affinity compared to FNI9-v1.1 [1] | fold-change in affinity compared to FNI9-v1.1 [2] | KD compared to v1.1 [3] | KD compared to v1.1 [4] | KD compared to v1.1 [5] | Kd [6] [nM] | Kd [7] [nM] | Kd [8] [nM]
1 | B1 | 2.47 | 1.53 |  |  |  |  |  | 
2 | B2 | 4.59 | 0.99 |  |  |  |  |  | 
3 | B3 |  |  | 1.23 | 1.66 | 1.53 | 8.31 | 22.8 | 1.07
4 | B4 |  |  | 0.57 | 0.82 | 0.7 | 3.83 | 11.2 | 0.49
5 | B5 | 1.12 | 0.42 |  |  |  |  |  | 
